Test results: patent US20190064177A1, “INCORPORATING COMPETITIVE BINDING INFORMATION INTO MOLECULAR ARRAY ANALYSIS TO GENERATE FUNCTION NETWORKS OF INTERACTIONS” (ARIZONA BOARD OF REGENTS ON BEHALF OF ARIZONA STATE …, priority 2017, published 2019)

target: Diaphorase; experiment: peptide array, 1 uM labeled diaphorase, no FAD

Row | Binder | fluorescence
1 | VVQALFDGSG | 1470
2 | RPLQVQRGGS | 5410
3 | YSVDYWYQVDGSG | 1800
4 | DLDKAFGGSG | 607
5 | VKDGANKHYWRVSGSG | 2220
6 | VERASYNLDGSG | 759
7 | FQFGKVVSDGSG | 1570
8 | AFYGLELGGSG | 2260
9 | SVLEGYQAVFGGSG | 1340
10 | AQVAVDGFYVDGSG | 2010
11 | LAKQNRVEDGSG | 770
12 | RWYKNGGSG | 10200
13 | VLSLNQVYSEGSG | 1670
14 | EGYANKLLALFSGSG | 1030
15 | FGKLYQLYNDGSG | 1910
16 | RYNLYKPSDGSG | 3570

Row | Binder | fluorescence
17 | LLGFLGGSG | 2320
18 | YVWGLELSGGSG | 2610
19 | YSALFGLQEDGSG | 1230
20 | WLDLGVFPYQHLGSG | 2200
21 | ELFGALFKGGSG | 2080
22 | RSHPKHNVGSG | 1950
23 | QLLQLLFGGSG | 3230
24 | KHSFQKELGGSG | 2090
25 | LKQLFLEGGSG | 1560
26 | LDRLGEYQFSGSG | 709
27 | VFGVLSQVARDGSG | 4250
28 | EAVQKLLFSGSG | 1460
29 | NVSDLSQFYLSGSG | 2140
30 | YRFAQYKGQKDGSG | 4470
31 | RFGQNLPLGGSG | 5800

target: Diaphorase; experiment: peptide array, 10 uM labeled diaphorase, no FAD

Row | Binder | fluorescence
32 | VVQALFDGSG | 9480
33 | RPLQVQRGGS | 53200
34 | YSVDYWYQVDGSG | 19800
35 | DLDKAFGGSG | 1850
36 | VKDGANKHYWRVSGSG | 20400
37 | VERASYNLDGSG | 2900
38 | FQFGKVVSDGSG | 12700
39 | AFYGLELGGSG | 16500
40 | SVLEGYQAVFGGSG | 6070
41 | AQVAVDGFYVDGSG | 12600
42 | LAKQNRVEDGSG | 2950
43 | RWYKNGGSG | 64800
44 | VLSLNQVYSEGSG | 9850
45 | EGYANKLLALFSGSG | 6650
46 | FGKLYQLYNDGSG | 15700
47 | RYNLYKPSDGSG | 50300

Row | Binder | fluorescence
48 | LLGFLGGSG | 26300
49 | YVWGLELSGGSG | 17300
50 | YSALFGLQEDGSG | 8530
51 | WLDLGVFPYQHLGSG | 25700
52 | ELFGALFKGGSG | 12900
53 | RSHPKHNVGSG | 17000
54 | QLLQLLFGGSG | 19500
55 | KHSFQKELGGSG | 2390
56 | LKQLFLEGGSG | 8700
57 | LDRLGEYQFSGSG | 3000
58 | VFGVLSQVARDGSG | 26200
59 | EAVQKLLFSGSG | 5390
60 | NVSDLSQFYLSGSG | 6740
61 | YRFAQYKGQKDGSG | 56900
62 | RFGQNLPLGGSG | 63500

target: Diaphorase; experiment: peptide array, 1 uM labeled diaphorase, with FAD

Row | Binder | fluorescence
63 | VVQALFDGSG | 2300
64 | RPLQVQRGGS | 14400
65 | YSVDYWYQVDGSG | 10400
66 | DLDKAFGGSG | 2050
67 | VKDGANKHYWRVSGSG | 12300
68 | VERASYNLDGSG | 2240
69 | FQFGKVVSDGSG | 2470
70 | AFYGLELGGSG | 4180
71 | SVLEGYQAVFGGSG | 2660
72 | AQVAVDGFYVDGSG | 3090
73 | LAKQNRVEDGSG | 1440
74 | RWYKNGGSG | 3660
75 | VLSLNQVYSEGSG | 2710
76 | EGYANKLLALFSGSG | 1730
77 | FGKLYQLYNDGSG | 3050
78 | RYNLYKPSDGSG | 1250

Row | Binder | fluorescence
79 | LLGFLGGSG | 4140
80 | YVWGLELSGGSG | 4690
81 | YSALFGLQEDGSG | 2100
82 | WLDLGVFPYQHLGSG | 3430
83 | ELFGALFKGGSG | 3400
84 | RSHPKHNVGSG | 3880
85 | QLLQLLFGGSG | 6310
86 | KHSFQKELGGSG | 728
87 | LKQLFLEGGSG | 2470
88 | LDRLGEYQFSGSG | 1160
89 | VFGVLSQVARDGSG | 6640
90 | EAVQKLLFSGSG | 2420
91 | NVSDLSQFYLSGSG | 3440
92 | YRFAQYKGQKDGSG | 1600
93 | RFGQNLPLGGSG | 2100

target: Diaphorase; experiment: peptide array, 10 uM labeled diaphorase, with FAD

Row | Binder | fluorescence
94 | VVQALFDGSG | 21200
95 | RPLQVQRGGS | 41100
96 | YSVDYWYQVDGSG | 19200
97 | DLDKAFGGSG | 2140
98 | VKDGANKHYWRVSGSG | 17800
99 | VERASYNLDGSG | 3370
100 | FQFGKVVSDGSG | 20200
101 | AFYGLELGGSG | 36700
102 | SVLEGYQAVFGGSG | 21500
103 | AQVAVDGFYVDGSG | 22700
104 | LAKQNRVEDGSG | 3700
105 | RWYKNGGSG | 46300
106 | VLSLNQVYSEGSG | 21800
107 | EGYANKLLALFSGSG | 10400
108 | FGKLYQLYNDGSG | 34200
109 | RYNLYKPSDGSG | 18200

Row | Binder | fluorescence
110 | LLGFLGGSG | 40300
111 | YVWGLELSGGSG | 36300
112 | YSALFGLQEDGSG | 16900
113 | WLDLGVFPYQHLGSG | 33600
114 | ELFGALFKGGSG | 25300
115 | RSHPKHNVGSG | 12200
116 | QLLQLLFGGSG | 53400
117 | KHSFQKELGGSG | 300
118 | LKQLFLEGGSG | 23500
119 | LDRLGEYQFSGSG | 7140
120 | VFGVLSQVARDGSG | 51500
121 | EAVQKLLFSGSG | 17700
122 | NVSDLSQFYLSGSG | 27800
123 | YRFAQYKGQKDGSG | 19900
124 | RFGQNLPLGGSG | 34700

target: Diaphorase; experiment: peptide array, 1 uM diaphorase, binding without FAD / with FAD

Row | Binder | noFAD/FAD
125 | VVQALFDGSG | 0.637
126 | RPLQVQRGGS | 0.375
127 | YSVDYWYQVDGSG | 0.173
128 | DLDKAFGGSG | 0.296
129 | VKDGANKHYWRVSGSG | 0.18
130 | VERASYNLDGSG | 0.339
131 | FQFGKVVSDGSG | 0.637
132 | AFYGLELGGSG | 0.541
133 | SVLEGYQAVFGGSG | 0.503
134 | AQVAVDGFYVDGSG | 0.652
135 | LAKQNRVEDGSG | 0.537
136 | RWYKNGGSG | 2.78
137 | VLSLNQVYSEGSG | 0.619
138 | EGYANKLLALFSGSG | 0.599
139 | FGKLYQLYNDGSG | 0.627
140 | RYNLYKPSDGSG | 2.87

Row | Binder | noFAD/FAD
141 | LLGFLGGSG | 0.559
142 | YVWGLELSGGSG | 0.556
143 | YSALFGLQEDGSG | 0.583
144 | WLDLGVFPYQHLGSG | 0.641
145 | ELFGALFKGGSG | 0.612
146 | RSHPKHNVGSG | 0.504
147 | QLLQLLFGGSG | 0.511
148 | KHSFQKELGGSG | 2.87
149 | LKQLFLEGGSG | 0.63
150 | LDRLGEYQFSGSG | 0.609
151 | VFGVLSQVARDGSG | 0.64
152 | EAVQKLLFSGSG | 0.602
153 | NVSDLSQFYLSGSG | 0.624
154 | YRFAQYKGQKDGSG | 2.78
155 | RFGQNLPLGGSG | 2.76

target: Diaphorase; experiment: peptide array, 10 uM diaphorase, binding without FAD / with FAD

Row | Binder | noFAD/FAD
156 | VVQALFDGSG | 0.448
157 | RPLQVQRGGS | 1.3
158 | YSVDYWYQVDGSG | 1.03
159 | DLDKAFGGSG | 0.865
160 | VKDGANKHYWRVSGSG | 1.14
161 | VERASYNLDGSG | 0.86
162 | FQFGKVVSDGSG | 0.631
163 | AFYGLELGGSG | 0.45
164 | SVLEGYQAVFGGSG | 0.282
165 | AQVAVDGFYVDGSG | 0.555
166 | LAKQNRVEDGSG | 0.797
167 | RWYKNGGSG | 1.4
168 | VLSLNQVYSEGSG | 0.452
169 | EGYANKLLALFSGSG | 0.639
170 | FGKLYQLYNDGSG | 0.46
171 | RYNLYKPSDGSG | 2.77

Row | Binder | noFAD/FAD
172 | LLGFLGGSG | 0.652
173 | YVWGLELSGGSG | 0.476
174 | YSALFGLQEDGSG | 0.506
175 | WLDLGVFPYQHLGSG | 0.765
176 | ELFGALFKGGSG | 0.511
177 | RSHPKHNVGSG | 1.39
178 | QLLQLLFGGSG | 0.366
179 | KHSFQKELGGSG | 0.794
180 | LKQLFLEGGSG | 0.369
181 | LDRLGEYQFSGSG | 0.419
182 | VFGVLSQVARDGSG | 0.509
183 | EAVQKLLFSGSG | 0.304
184 | NVSDLSQFYLSGSG | 0.242
185 | YRFAQYKGQKDGSG | 2.86
186 | RFGQNLPLGGSG | 1.83

target: Diaphorase; experiment: peptide array, 1 uM diaphorase, measured binding without FAD / with FAD

Row | Binder | Meas. ratio (noFAD/FAD)
187 | WRLNPLQFGGSG | 2.54
188 | WRPFWKNLGGSG | 2.18
189 | RVLPYHGWKWFSG | 2.45
190 | YRYGWQKYGGSG | 2.43
191 | PRFNWKPYGGSG | 2.44
192 | ARWQQYKFGGSG | 2.18
193 | YRGAGKNKGGSG | 1.49
194 | YQRHQNVFAKSGG | 2.56
195 | RQRYPKVSGGSG | 1.71
196 | YWRFYANWAQLFG | 2.56
